Consider two molecules from publication PMC6713228 (2018).

By Kd is commonly meant the constant that tells how readily two partners part at equilibrium.

For one experiment, the target named is CD20 (Homo sapiens) (UniProt P11836). Particulars: cited from earlier work.
The target in the next experiment is T1, CD20 (Homo sapiens, UniProt P11836).
T1 chain: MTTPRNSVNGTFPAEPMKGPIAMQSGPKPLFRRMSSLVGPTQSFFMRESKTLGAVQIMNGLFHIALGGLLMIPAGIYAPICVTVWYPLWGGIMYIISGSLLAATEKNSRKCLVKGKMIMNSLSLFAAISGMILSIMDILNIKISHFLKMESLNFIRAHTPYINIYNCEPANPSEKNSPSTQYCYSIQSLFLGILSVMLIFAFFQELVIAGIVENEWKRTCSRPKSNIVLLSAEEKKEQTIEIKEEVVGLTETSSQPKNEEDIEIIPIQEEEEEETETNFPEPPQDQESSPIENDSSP

Turning to rituximab, in the experiment with CD20 (Homo sapiens), the Kd is 4.96 nM.

B1: rituximab (antibody, V domains shown)
VH: QVQLQQPGAELVKPGASVKMSCKASGYTFTSYNMHWVKQTPGRGLEWIGAIYPGNGDTSYNQKFKGKATLTADKSSSTAYMQLSSLTSEDSAVYYCARSTYYGGDWYFNVWGAGTTVTVSA
VL: QIVLSQSPAILSASPGEKVTMTCRASSSVSYIHWFQQKPGSSPKPWIYATSNLASGVPVRFSGSGSGTSYSLTISRVEAEDAATYYCQQWTSNPPTFGGGTKLEIK
modifications: FITC-labeled rituximab
With B1, the Kd with CD20 was determined as 4.82 nM.
